According to patent publication US11673916B2, “Neuroprotective peptides and methods of their use” (University of Pittsburgh—Of the Commonwealth System of …, priority 2020, dated 2023):

These substances were tested against T1, Kv2.1 surface clusters (Rattus norvegicus, UniProt P15387) (assay: Kv2.1 surface cluster density in live cortical neurons co-transfected with Kv2.1-GFP and peptide-expressing plasmids). Conditions: plasmid-driven expression, 24 h after transfection, mean+/-SEM (FIG. 1C).
T1 construct: expressed in transfected cells; host or cells: primary rat cortical neurons (E16-17 Sprague-Dawley), Lipofectamine 2000
T1 sequence (P15387 1-857): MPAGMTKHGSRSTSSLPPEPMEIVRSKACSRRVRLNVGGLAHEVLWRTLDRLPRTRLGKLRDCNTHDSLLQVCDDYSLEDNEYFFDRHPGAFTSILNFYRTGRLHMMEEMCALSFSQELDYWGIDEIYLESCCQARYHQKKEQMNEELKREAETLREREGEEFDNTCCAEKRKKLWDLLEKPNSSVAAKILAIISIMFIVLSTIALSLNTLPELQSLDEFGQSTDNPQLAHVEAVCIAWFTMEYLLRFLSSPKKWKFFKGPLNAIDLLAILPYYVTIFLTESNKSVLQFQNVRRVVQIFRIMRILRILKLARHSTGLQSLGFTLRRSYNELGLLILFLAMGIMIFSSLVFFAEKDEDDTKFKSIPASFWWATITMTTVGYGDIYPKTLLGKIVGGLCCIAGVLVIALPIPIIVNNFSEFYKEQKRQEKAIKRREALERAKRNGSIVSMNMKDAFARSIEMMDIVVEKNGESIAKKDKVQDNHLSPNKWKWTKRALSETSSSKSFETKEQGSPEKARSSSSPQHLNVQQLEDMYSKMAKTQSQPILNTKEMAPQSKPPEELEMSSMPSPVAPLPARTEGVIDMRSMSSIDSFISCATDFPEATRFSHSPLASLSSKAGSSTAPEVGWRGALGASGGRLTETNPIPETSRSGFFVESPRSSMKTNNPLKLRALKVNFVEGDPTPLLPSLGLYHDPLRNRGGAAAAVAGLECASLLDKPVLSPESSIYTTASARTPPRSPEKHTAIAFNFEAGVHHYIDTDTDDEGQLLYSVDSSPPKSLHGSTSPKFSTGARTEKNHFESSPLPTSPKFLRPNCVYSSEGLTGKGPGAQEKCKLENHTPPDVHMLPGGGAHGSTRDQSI
Assay type: cell-based
Method: In vitro experiments utilized primary cortical neuronal cultures prepared from embryonic day 16-17 Sprague-Dawley rats of either sex in a protocol described previously (McCord et al., J Physiol (Lond). 592: 3511-3521, 2014). Timed-pregnant rats (Charles River Laboratories, Wilmington, Mass.) were sacrificed by CO2 inhalation. Embryonic cortices were dissociated with trypsin (0.6 mg/mL) and cells plated in sterile 6-well plates on poly-L-ornithine-coated glass coverslips at a density of 670,000 cells per well. Cytosine arabinoside (1-2 μM) was utilized to inhibit non-neuronal proliferation on day 14 in vitro (DIV); cultures were utilized at 21-25 DIV.
Transfections were performed with Lipofectamine 2000 (L2K; Invitrogen, Carlsbad, Calif.). Cortical neuronal cultures on glass coverslips were placed into wells containing 500 μL of Dulbecco's minimum essential medium with 2% HyClone bovine serum (D2C; Thermo Fisher Scientific, Waltham, Mass.). A mixture of 1.5 μg of total cDNA and 2 μL of L2K was prepared in 100 μL of Opti-MEM I (Life Technologies Corp., Grand Island, N.Y.) for each well and added. […]
To analyze Kv2.1 distribution in live primary cortical neurons, cells were transfected with both a tdTomato construct and a GFP-tagged Kv2.1 construct (O'Connell, et al., J Neurosci. 26: 9609-9618, 2006) and imaged on a Nikon A1+ confocal microscope (Nikon, Tokyo, Japan). […] For live images of transfected neurons, object count parameters were customized to define a Kv2.1 cluster as an area of high intensity GFP fluorescence (compared to background), measuring 0.05 μm^2 or larger (Schulien et al., J Physiol (Lond). 594: 2647-2659, 2016). Kv2.1 cluster density was calculated by normalizing the number of Kv2.1 clusters counted to the somatic area of each neuron (#Kv2.1 clusters/μm^2). […] In each neuron analyzed, two populations on Kv2.1-GFP expression were first noted—(a) highly localized signals of clustered Kv2.1 channels, and (b) diffuse background staining that represents freely-dispersed, conducting Kv2.1 channels on the plasma membrane. […]

| Substance | mean Kv2.1 surface cluster density |
| --- | --- |
| Kv2.2 CT: Kv2.2 channel C-terminal peptide expressed from plasmid pCMV-Kv2.2CT (EVIVDMKSTSSIDSFTSCATDFTETE) | 0.07±0.01 #Kv2.1 clusters/μm^2 of neuronal soma |
| MKSTSDFSSIST [Sc-1, plasmid expressed scrambled control of DP-1 (pCMV-Sc-1)] | 0.14±0.03 #Kv2.1 clusters/μm^2 of neuronal soma |
| MKSTSSIDSFTS [DP-1, plasmid expressed expanded declustering peptide (pCMV-DP-1)] | 0.04±0.01 #Kv2.1 clusters/μm^2 of neuronal soma |
